Patent US20240010735A1 (EISAI R AND D MANAGEMENT, published 2024)

Molecular target: T1, human EphA4 extracellular region-SEAP-His protein (human, UniProt P54764 20-547)
T1 construct: also called human EphA4 extracellular region-SEAP-His 10; not shown: secretory alkaline phosphatase (SEAP); histidine tag
Test: SPR (Biacore T200): human EphA4 extracellular region-SEAP-His captured on anti-His antibody, antibody B 1.6-100 nM as analyte, 1:1 fit
Procedure: The binding affinity of antibody B obtained in Example 1 against human EphA4 was determined by surface plasmon resonance (SPR method) employing Biacore T200 (GE Healthcare). First, anti-His antibodies (GE Healthcare, 28-9950-56) were fixed to a sensor chip CMS. Fixation was carried out by amine coupling method employing N-hydroxysuccinimide (NHS) and N-ethyl-N′-(3-dimethylaminopropyl) carbodiimide hydrochloride salt (EDC), and ethanolamine was employed for blocking (the sensor chip and reagents for fixation are all from GE Healthcare). This was diluted with the fixation buffer (10 mM sodium acetate, pH 4.5) to 3.5 μg/mL, and fixed onto the sensor chip according to the protocol accompanying Biacore T200. Human EphA4 extracellular region-SEAP-His 10 was diluted with the running buffer HBS-EP (GE Healthcare, BR-1001-88), and the solution was sent and captured onto the flow cell for 120 seconds (about 10 RU of captured amount). […] Fitting analysis by 1:1 binding model employing the software accompanying the system, BIA evaluation software, was carried out against the binding reaction curve obtained, and the affinity (KD=kd/ka) against human EphA4 was calculated.

T1 sequence (P54764 20-547): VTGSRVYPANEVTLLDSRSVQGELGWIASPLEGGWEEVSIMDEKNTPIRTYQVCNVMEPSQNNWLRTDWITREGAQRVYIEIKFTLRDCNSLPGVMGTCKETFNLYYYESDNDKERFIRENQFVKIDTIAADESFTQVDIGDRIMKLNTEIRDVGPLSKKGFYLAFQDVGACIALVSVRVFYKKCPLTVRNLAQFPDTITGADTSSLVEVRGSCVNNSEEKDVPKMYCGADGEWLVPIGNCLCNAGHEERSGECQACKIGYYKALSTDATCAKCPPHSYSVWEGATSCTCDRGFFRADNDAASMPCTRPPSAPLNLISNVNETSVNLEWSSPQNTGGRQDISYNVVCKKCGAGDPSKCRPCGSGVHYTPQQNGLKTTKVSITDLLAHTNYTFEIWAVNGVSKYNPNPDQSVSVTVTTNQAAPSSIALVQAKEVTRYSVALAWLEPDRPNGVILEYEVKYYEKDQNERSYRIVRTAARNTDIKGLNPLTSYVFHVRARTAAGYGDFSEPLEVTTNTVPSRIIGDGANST

B1: humanized anti-EphA4 monoclonal antibody (antibody B) (antibody, human IgG2, V domains shown)
VH: QVQLVESGGGVVQPGRSLRLSCAVSGFSLTRFGVHWVRQAPGKGLEWVAVIWRGGSTDYNAAFMSRLTISKDNSKNTVYLQMNSLRAEDTAVYYCAKESLFGVYYDYGYYSMDYWGQGTTVTVSS
VL: DIQMTQSPSSLSASVGDRVTITCRASQEISGYLSWLQQKPGKAPKRLIYAASTLDSGVPSRFSGSRSGTEYTLTISSLQPEDFATYYCLQYASYPLTFGGGTKVEIKR
notes: expressed in Expi293F cells; also called humanized antibody of antibody A; HK2-42 / L1-8
koff: 0.000494 s⁻¹ | kon: 370000 M⁻¹ s⁻¹
